In patent US20240147984A1 (SYNKLINO A S, published 2024):

Assays:
Assay in all cases: cell-based or functional assay
CX3CR1 = molecular target: T1, CX3CR1 (human, UniProt P49238 1-355)
T1 sequence: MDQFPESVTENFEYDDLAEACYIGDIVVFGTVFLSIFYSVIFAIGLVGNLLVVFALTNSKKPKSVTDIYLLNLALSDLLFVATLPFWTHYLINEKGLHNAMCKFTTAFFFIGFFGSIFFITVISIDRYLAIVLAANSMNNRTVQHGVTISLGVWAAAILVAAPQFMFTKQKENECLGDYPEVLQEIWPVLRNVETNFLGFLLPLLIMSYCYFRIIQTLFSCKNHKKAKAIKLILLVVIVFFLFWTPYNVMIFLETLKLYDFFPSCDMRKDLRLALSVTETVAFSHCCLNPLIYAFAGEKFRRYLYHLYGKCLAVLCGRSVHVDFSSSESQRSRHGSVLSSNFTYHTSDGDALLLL

US28 [1] = molecular target: T2, US28 (human cytomegalovirus, UniProt P69332 1-354)
T2 sequence: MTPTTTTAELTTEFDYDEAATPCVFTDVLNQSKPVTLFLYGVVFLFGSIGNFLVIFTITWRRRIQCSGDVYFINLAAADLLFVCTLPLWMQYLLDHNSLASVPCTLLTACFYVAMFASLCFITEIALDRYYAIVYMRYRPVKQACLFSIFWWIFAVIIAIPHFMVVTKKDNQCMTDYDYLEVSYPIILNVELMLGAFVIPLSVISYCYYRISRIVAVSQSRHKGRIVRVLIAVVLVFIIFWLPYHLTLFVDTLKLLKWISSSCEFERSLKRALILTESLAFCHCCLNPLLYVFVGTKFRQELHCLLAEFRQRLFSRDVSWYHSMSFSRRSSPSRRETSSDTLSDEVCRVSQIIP

US28 [2] = molecular target: T2, US28; remark: listed apart in the source

B1: SYN001 (other)
chain: MQHHGVTKCNITCSKMTSKIPVALLIHYQQNQASCGKRAIILETRQHRLACADPKEQWVKDAMQHLDRQAAALTRNRQPRGWEQLEQSGYPVQRLVALYLAARLSWNQVDQVIRNALASPGSGGDLGEAIREQPEQARLALTLAAAESERFVRQGTGNDEAGAASGPADSGDALLERNYPTGAEFLGDGGDISFSTRGTQNWTVERLLQAHRQLEERGYVFVGYHGTFLEAAQSIVFGGVRARSQDLDAIWRGFYIAGDPALAYGYAQDQEPDARGRIRNGALLRVYVPRSSLPGFYRTGLTLAAPEAAGEVERLIGHPLPLRLDAITGPEEEGGRLETILGWPLAERTVVIPSAIPTDPRNVGGDLDPSSIPDKEQAISALPDYASQPGKPPKDE
Log IC50, cell killing assay (CX3CR1): -7.82 log IC50; concentration unit not printed | Log IC50, cell killing assay (US28 [1]): -10.7 log IC50; concentration unit not printed | Selectivity Ratio US28/CX3CR1 (cell killing IC50) (US28 [1]): 718 ratio | EC50 (log), potency assay; SYN001 1 mg/L, 0 min in perfusate at 37 C (US28 [2]): -9.95 log EC50; concentration unit not printed | EC50 (log), potency assay; SYN001 1 mg/L, 15 min in perfusate at 37 C (US28 [2]): -9.95 log EC50; concentration unit not printed | EC50 (log), potency assay; SYN001 1 mg/L, 180 min in perfusate at 37 C (US28 [2]): -10 log EC50; concentration unit not printed | EC50 (log), potency assay; SYN001 1 mg/L, 300 min in perfusate at 37 C (US28 [2]): -9.93 log EC50; concentration unit not printed
